Residue numbers refer to the chain shown, from its start. Where two headings read alike, the source gives them in different places.
Legend:
Test in all cases: ELISA
8His-TEV-RoxP_1 = biological target: T1, 8His-TEV-RoxP_1 (Cutibacterium acnes KPA171202)
T1 chain: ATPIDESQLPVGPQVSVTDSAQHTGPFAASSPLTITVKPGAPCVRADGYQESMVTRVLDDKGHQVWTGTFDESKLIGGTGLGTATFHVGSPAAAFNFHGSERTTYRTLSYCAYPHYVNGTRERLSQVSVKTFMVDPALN

[1] = biological target: T2, endogenous RoxP secreted by C. acnes strain KPA171202 (Cutibacterium acnes KPA171202, UniProt Q6A6F6)
[2] = biological target: T3, endogenous RoxP secreted by C. acnes strain ATCC 6919 (Cutibacterium acnes ATCC 6919 …, UniProt Q6A6F6, strain)
[3] = biological target: T2, endogenous RoxP secreted by C. acnes …; remark: listed apart in the source
[4] = biological target: T3, endogenous RoxP secreted by C. acnes …; remark: listed apart in the source
RoxP_11-tagless = biological target: T4, RoxP_11-tagless (Cutibacterium porci (WP_154564006.1))
T4 chain: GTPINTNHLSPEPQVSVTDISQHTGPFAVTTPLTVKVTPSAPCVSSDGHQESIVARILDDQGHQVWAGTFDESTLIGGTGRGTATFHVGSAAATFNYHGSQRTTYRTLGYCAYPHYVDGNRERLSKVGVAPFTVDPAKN

B1: 2H2F3 (antibody, V domains shown)
VH: QVQLQQSGAELVRPGVSVKISCKGSGYTFTDYAMHWVKQSHAKSLEWIGIISTYYGNASYNQKFKGKATMTVDKSSSTAYMELARLTSEDSAIYYCARVPYYGSSYAMDYWGQGTSVTVSS
VL: DVLMTQTPLSLPVSLGDQASISCRSSQNIVHSDGNTYLEWYLQKPGQSPKLLIYKVSNRFSGVPDRFSGSGSGTDFTLKISRVEAEDLGVYYCFQGSHVPWTFGGGTKLEIK
- binding result (8His-TEV-RoxP_1): binds

B2: biotinylated-2H2F3 (antibody, V domains shown)
VH: B1 VH
VL: B1 VL
- binding result [1]: binds
- binding result [2]: binds

B3: 5F3D11 (antibody, V domains shown)
VH: not shown
VL: B1 VL with L3V, N28S, I29L, D33N, E39H, Y92F, F94S, G96S, S97T, W101P
- binding result (8His-TEV-RoxP_1): binds

B4: 4D8H1 (antibody, V domains shown)
VH: EVKLLESGGGLVQPGGSLKLSCAASGFDFSRYWMSWVRQAPGKGLEWIGEINPDSSTINYTPSLKDKFIISRDNAKNTLYLQMSKVRSEDTALYYCARYYSRFAYWGQGTLVTVSA
VL: QAVVTQESALTTSPGETVTLTCRSSTGAVTTRNYANWVQEKPDHLFTGLIGDTNNRAPGVPARFSGSLIGDKAALTITGAQTEDEAIYFCALWYSNHWVFGGGTKLTVL
- binding result [3]: binds
- binding result [4]: binds
- binding result (RoxP_11-tagless): no binding (tested: 155 ng/mL)
- binding result (8His-TEV-RoxP_1): binds

B5: 3E10E3 (antibody, V domains shown)
VH: QVTLKESGPGILQPSQTLSLTCSFSGFSLSTYGIGVGWIRQPSGKGLEWLAHIWWNDNKYYNTALKSRLTISKDTSNNQVFLKIASVDTADTATYYCARSLPYFDYWGQGTTLTVSS
VL: DIQMTQSPASLSASVGETVTITCRASENIYSYLAWYQQKQGKSPQFLVYNAKTLAEGVPSRFSGSGSGTQFSLKINSLQPEDFGSYYCQHHYGIPRTFGGGTKLEIK
- binding result (RoxP_11-tagless): binds
- binding result (8His-TEV-RoxP_1): binds

— article doi:10.1101/2024.09.18.613542 (bioRxiv, 2024)
